{"source": "patent US20230330196", "target": "programmed death-1 homolog (PD-1H) of mouse mononuclear bone marrow cells (UniProt Q9D659)", "sequence (Q9D659 33-308)": "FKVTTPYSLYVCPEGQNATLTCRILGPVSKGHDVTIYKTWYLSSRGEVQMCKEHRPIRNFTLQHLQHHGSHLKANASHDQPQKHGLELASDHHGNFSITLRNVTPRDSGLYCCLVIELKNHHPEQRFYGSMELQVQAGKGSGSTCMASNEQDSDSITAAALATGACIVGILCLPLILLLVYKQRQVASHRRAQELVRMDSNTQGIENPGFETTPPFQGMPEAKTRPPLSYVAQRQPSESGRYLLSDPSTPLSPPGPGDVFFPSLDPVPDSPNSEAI"}
{"substance": "MMP-13 (added to mouse osteoclast cultures)", "values": [{"measurement": "OCL fusion and activation, ERK1/2 phosphorylation, NFATc1 and DC-STAMP upregulation in Pd-1h-/- versus WT OCLs", "result": "While MMP-13 induced WT OCL fusion and activation, these effects were completely blocked in Pd-1h-/- OCLs in tandem with a loss in MMP-13 induced ERK1/2 phosphorylation, NFATc1 and DC-STAMP upregulation"}]}
